The nature of the data set: soluble on expression in E. coli; label from the status in PepcDB or PDB records.
In the case of “MLSSINMVKIGLEVHVHLTSLKTKLFCSCPSDYTGKDPNTNVCPICLGLPGAIPVLNENAVKAAIMVALAINAEIANSLIMVRKHYFYPDMAKNYQISQYDGPGSIAISKGGYLKLREGKTVRIRRINIEEDPAKIIYPTGSMLTSKYTLLDYNRSGMGLLEIVTEPDMTEPKEAREFLEKLRSILEHLGVCNCDLEGAMRADANVSVEGGERVEIKNIGSPREVEEALKYEIARQKAAIAQGLPVKRETRHWDSERKVTVPTRTKETEEDYRYFPDPDLPPYPITQDLIEEIRKTLPELPDLRIKRLVTQYGISDYDATVLVMDKALADLFEETAKHYSNYKKLVNLLINDYLRWLNDKNLRPSQSKAGSQHLVELLKLLDDGVITIKIAKEILPEIVLEGKMPSSIIKERGLVAIKDEDYLINVIKEVINEEPDAAEKAKNDPKVINYLVGKVMKKTGKRADPQLTNELIKKILGIK”, the “soluble on expression in E. coli” value was “soluble”.
The value for “MAHHHHHHMHQLRTFNYVASELGHDEPVLHAVFVTHRCLPPDPPEVNFTTAIPQTVTAASRRTSSDDASIGAAVHVEKTVVLSVEDTLAAPLEVALTVEQELAQLSKKLDAWKVQRLADLQARGGERSPSRLAQMEAAMERRLALRRIEEQDRAQKRVDALLSYLGPRIDKQLQLVAREHDGEEALSSSYARVETTSDVKDSACADKSAASAATPSPPSPRARILCDQQYFVKRQEIALEERGARQAVLRNMWDARRLAHLVEDEVSFRHSIEAREVVWRDRVHSELRASVEMDHV” was “not soluble”; that for “MEGSVSEFLTVRLSSQKEADIPWLVWSAEQQEVIASGQVAGWEALHEIESYADQRSVVVLLAASDLILTSVEIPPGASRQLENMLPYLLEDEIAQDVEDVHFCVLSKGRETADVVGVDRLWLRACLDHLKACGFDVKRVLPDVLAIPRPEHGLAALQLGDEWLVRKSTTQGMAVDAQWLSLLAASDWVQNEGEYLPLQALTPLPELSLAETQEWRYEPSGLVMQLLTQEALTSKFNLLTGSFKLKSLEHHHHHH” was “soluble”; that for “MSLAPAEWVALNYVPFAERSLEVVVDLYQKTACHKAVVNEKVLQNIIKTLRVPLSLKYSCPSESTWKLAVSSLLRVLSIGLPVARQHASSGKFDSMWPELANTFEDFLFTKSIPPDNLSIQEFQRNENIDVEVVQLISNEILPYANFIPKEFVGQIMTMLNKGSIHSQSSSFTEAEIDIRLREEFSKMCFETLLQFSFSNKVTTPQEGYISRMALSVLLKRSQDVLHRYIEDERLSGKCPLPRQQVTEIIFVLKAVSTLIDSLKKTQPENVDGNTWAQVIALYPTLVECITCSSSEVCSALKEALVPFKDFMQPPASRVQNGEEGHHHHHH” was “not soluble”.
The value for “MGSDKIHHHHHHMALNLKKLPILFLSDSTTSVAISREAKAGRIRKIGPRLYTSNTSDDPAYIIRQNWLQALTLLFPGCVVSNRTALESRVSPAGRVYVTGDYARTLELHGTKFVQVKGSPPVEGDTPLLGIFMASRARALLENLTPSRERSGGELKNLPREMIERRLAELLNVEKEDSVNRLRDQARQIAPLLGLEKEFDELDDLIGTLLRTRKATLADPVAKAHQLGTPYDPHALERVETLWSVLASMPHNYRPTNAGTGTPFYTVSFFDAYFSNYIEGTRFKVDEAKEIVDSGVIPAIRPADGHDILGTYRVVSSLENMRRTPKNPDEFIELLQSRHADIMVGRPDKRPGEFKEEVNYAGATRFVDPDLVRGTLSQGFSLYKSLEHPFARALLIMFLVAEVHPFDDGNGRAARAMMNSELITAEETRIIIPSVFRNEYVASLKRMTNHLQPESFISVMSFAQEFVSRISFDSYASARVQMEGCNAFDDPADDKRLLQPSIS” was “not soluble”.
As for “MSLNSMKDAFNREIDYVRLSLTDRCDLRCTYCMPATGLCFLKKEQLLTDDEIIFLLRILAKEDIKKVKLTGGEPLVRPNLLSLIKRIKQISGIEKVTLTTNGMKLAREAQGLKEAGLDGINISLDTLDPEEFREITRVGQLRNVLAGLEQAIDVGLPNIKINTVARKELSEATIVELAEIAKKETVHLRFIEMMPIGLGKEHPGKQQEEVEAILTKYYGTLQPYQKPLGNGPASYYALKDFKGKIGFISALGHCFCETCNRIRITADGHLKTCLHSADGYSLKEALAMEQTAELLGIIKSGIACKPEKHLFLEQQGEQRFMSQIGGEGHHHHHH”, the entry is “not soluble”; as for “MGSDKIHHHHHHMTIHISTAPCCWGVDDVKNPYLPAWRDVLGEASEAGYRGVELGPYGYLPLDPAVVSAALGENRLHVVAGTVFDDLVTLTNLPSLLRQTHDICALLKQLPPIDKEPGQRFAGPYLVIIDWGHEERDYAAGHSELAQRLDDGAWQTMMEHIRAICQIAWHEYGIRPVIHPHAGGYIEFADELARLVDDIPDDVAGLCLDTGHLYYAGMDPAASLRTYADRLDYIHFKDIDQSVFDDVMKQRIKFFDACARGVMCPIGRGVIDYPSLYRLIQTLGYEGYITVEQERDPRNANGSLEDVRSSRTYLANVGF”, “not soluble”.
Turning to “MASNMDREMILADFQACTGIENIDEAITLLEQNNWDLVAAINGVIPQENGILQSEYGGETIPGPAFNPASHPASAPTSSSSSAFRPVMPSRQIVERQPRMLDFRVEYRDRNVDVVLEDTCTVGEIKQILENELQIPVSKMLLKGWKTGDVEDSTVLKSLHLPKNNSLYVLTPDLPPPSSSSHAGALQESLNQNFMLIITHREVQREYNLNFSGSSTIQEVKRNVYDLTSIPVRHQLWEGWPTSATDDSMCLAESGLSYPCHRLTVGRRSSPAQTREQSEEQITDVHMVSDSDGDDFEDATEFGVDDGEVFGMASSALRKSPMMPENAENEGDALLQFTAEFSSRYGDCHPVFFIGSLEAAFQEAFYVKARDRKLLAIYLHHDESVLTNVFCSQMLCAESIVSYLSQNFITWAWDLTKDSNRARFLTMCNRHFGSVVAQTIRTQKTDQFPLFLIIMGKRSSNEVLNVIQGNTTVDELMMRLMAAMEIFTAQQQEDIKDEDEREARENVKREQDEAYRLSLEADRAKREAHEREMAEQFRLEQIRKEQEEEREAIRLSLEQALPPEPKEENAEPVSKLRIRTPSGEFLERRFLASNKLQIVFDFVASKGFPWDEYKLLSTFPRRDVTQLDPNKSLLEVKLFPQETLFLEAKE”, the “soluble on expression in E. coli” value is “soluble”.
Turning to “GMSIPANNSPVRLALIGAGRWGKNYIRTIAGLPGAALVRLASSNPDNLALVPPGCVIESDWRSVVSAPEVEAVIIATPPATHAEITLAAIASGKAVLVEKPLTLDLAEAEAVAAAAKATGVMVWVEHTQLFNPAWEALKADLTSIGPILAVRSEAGNHGPYRPGGVPMLWDWGAHDVSMVLDLMGRDPDSTSASWAARGEKDGGEAGDVTLTLAFSTVEAHIRLCNTMDKCRRLAVFGEAGTLVMDDRATDKLTLHPPQPDGNWPVGQGHALTVTDEMPLTRAVRLFAGAVRQPEPGPSPLELGLRVVRVLGACS”, the “soluble on expression in E. coli” value is “soluble”.
Consider “SLVAVIGCCHGELNRLYMEVEKYENEKNEKVDLILCCGDMQTIRDENDLQDMAVKSHRSKKGDFWEYYEGLKKAPKLTIFIGGNHETPNVLIPLYYGGWVAPNIFYLGSSGVIRVGDVRVAGISGIYKNYDHFRGYYESKPFTEESKRSWYHIRWLEIQKLLLIENIKSNFLGSTESRKVDVMISHDWPNGIERFGNLNYLIRRKPYLKEDIELGRLGIPGCIELIEHLRPTFWFSGHHHCFFDASIEFENQLYSSEFRAIDKFKNSNSPVRYFDINSNKNDVRIYLDFEWLTILRSVKANIPKGNFTIDKNSIPKLSGPTKSDIDAIYKNLKEVIGDFDENHYEWPLWGQANGNFKNLQDQYNFINRIIEEG”, for which the “soluble on expression in E. coli” value is given as “not soluble”.
Consider “MGSDKIHHHHHHMSHSTDLSALARWMAADFSNQAQAFENPPFYAHIRVAIRPLDQAKFGDRLLFLEQAYDFMLQRPYRLRVLKLKVVEDHIEIENFKVKDEEKFYGAARDLGKLAQLTPADLEPMHGCDMIVEWTGTSFKGEVQPGRQCRVMRDGKETYLENSFEVSETGLISLDRGYDPETNERVWGSVAGAFHFVRWQSFADEVSF”, for which the “soluble on expression in E. coli” value is recorded as “not soluble”.
Take “MGSDKIHHHHHHELGMQDNLNDSKILLSSDEYISIAYDNPGIITSEEAKQLVLDFNPTGLQTRNNNVKIMAISTYNVSSSSGLKTRVGSTNLTTIPVYKIEFLSDEGKGVAYVPADERFAKIMAYLPKTDLKDSVKYVDSKSMLYLSELSLLEDAKYYEKVKSELRAKTLAKIAKTLNVKAVRYDEIQDIIIVKDEILSRSEPTFPIGNPIGFAGLYCSSTEWNQDAPYNDLLQKENCDLYDTGSPTYEAVPAGCAVISIAQIMASLEPDLTVDGLKIDWNILKAQKQIIAPSSWQTPSSETTREMVAKLIKYIYIATNTQPVRNSSGYVTGSGTYSSDTSSFFYRFFSTSGLKNGWDGNAAFQSLQLAKLVWIAATSNRGGSHAFILDGFAYWRPQTRYLVKNFDFYFHANMGWGGYYDGFYLVNKDLSITFDTSNGSYDRNFSMIYNIINK”: the “soluble on expression in E. coli” value was “not soluble”.
On to “MHHHHHHHHIGGDFAVVKAKKSLERRGFGVKRGDKIYLHPLEVVYLQIKGIESFGELEDVLSWAESRMEDFSTYYFVYEDLRDRGNKVKIQGEFLLTKKPYLPISERKTIRMEEIAEKARNFDELRLAVVDEESEITYFRVYEPDMMGEQKEELPEIAGVLSDEYVITKQTEIFSRYFYGSEKGDLVTLSLIESLYLLDLGKLNLLNADREELVKRAREVERNFDRRYEVYRNLKERGFVVKTGFKFGSEFRVYRKVESVDDLPHSEYLVDIADSREIRLIDLARAVRLAQNVRKRMVFAYGKNYLCFERVKV”, for which the “soluble on expression in E. coli” value is reported as “soluble”.
The value for “MKIGFFTDTYFPQVSGVATSIKTLKDELEKHGHEVYIFTTTDPNATDFEEDVIRMPSVPFVSFKDRRVVVRGMWYAYLIAKELELDLIHTHTEFGAGILGKMVGKKMKIPVIHTYHTMYEDYLHYIAKGKVVRPSHVKFFSRVFTNHTTGVVCPSERVIEKLRDYGVTAPMRIIPTGIEIDKFLRPDITEEMIAGMRQQLGIEEQQIMLLSLSRISYEKNIQAIIQGLPQVIEKLPQTRLVIVGNGPYLEDLKELAEELEVSEYVQFTGEVPNEEVAIYYKAADYFVSASTSETQGLTYTEAMAAGVQCVAEGNAYLNNLFDHESLGKTFKTDSDFATTLIDYIQANIKMDQTILDEKLFEISSTNFGNKMIEFYQDTLIYFDQLQMEKENADSIKKIKVKFTSLRKLEHHHHHH” was “soluble”.
As for “MGNQSARQLSTHRKHVVHTWNTINSHDPQLLSDAISEAWLKSAELTPTWVWALVDLPETMHATYKENAQFLNIINQVRDFLNILIKVHKCDPEMIKTLSFRLGARHRHYMNEGNDNCFWAPFAQQLPIAMSKMYMRVVTEDSKIRRILRIRSRAAEKSEEEEVCESWRQFSCMLIESMKRGYEGCASEKTPLRLSITNSIISMASMRSSRSRSASHFLEPNMSPAIAPMCALLGSTESNSTTTTTQPSSPITPYRRRSMFRAGGALQRNSQDFTALRNRRMSSPNNPSILLNNCDIQLLKLTSQLSPLEDQVKQNRVPGRAHQQRRSITLLNFDHHHRARSPTT”, the entry is “not soluble”; as for “MRSANHSELSNALLAISQSLADRSQLTQTLDAVLTAARQMTLAKHGIIYVLDQTGQALIPSTAHHNDKTIVSHPWEALQIDSASENDPFNFAIRNGEVVLINELYKYKGYDCESIYQTEQTLGLKSENLLAWPLIDSESKTIGLLVLLDLNVIDNEAALTEFCRMAASNIRQAVWLEQ”, “not soluble”.
On to “MGSDKIHHHHHHMKLSCSQSELNNALQLVSRAVSNRPTHPVLANVLLAADEVTGKLRLTGFDLSLGIQTSISASIDSSGAITLPAKLFGEIVSKLSNDSPLVLTSDETSQQVELTSKSGTYQVRGMLSDDFPELPLVENGTSFKLNPLLLSNAIKSTLFASSTDDAKQLLTGVNLTFDGYGIESAATDGHRLAVLNLNNILSDSKEIDSSIKFEKFSITLPSKSLREVEKFLSTCDISHPINFFIDKGQVVFISVEDIITIRALEGSYPNYSQLLPDTFENELEFDRKEFISSLERIAVLADQHNNVIKVTTDGSANLIKISTDAQDIGTGYESLPVSYKGDSFQIAFNVRYLLDGLKVIDSNLIKLSCNSPTTPAIFSPINSDVNFTYLVMPIQIRN”, for which the “soluble on expression in E. coli” value is “not soluble”.
